The numbers were not newly measured in article PMC3930637, which cites them from elsewhere.

One may read the Kd as the free concentration of one partner at which half of the binding sites on the other are occupied at equilibrium, for simple one-to-one binding.

The data set addresses HIV-1 capsid (CA) CA (Human immunodeficiency virus 1) (UniProt O93182).

Chain of HIV-1 capsid (CA) CA (Human immunodeficiency virus 1) (O93182 133-363): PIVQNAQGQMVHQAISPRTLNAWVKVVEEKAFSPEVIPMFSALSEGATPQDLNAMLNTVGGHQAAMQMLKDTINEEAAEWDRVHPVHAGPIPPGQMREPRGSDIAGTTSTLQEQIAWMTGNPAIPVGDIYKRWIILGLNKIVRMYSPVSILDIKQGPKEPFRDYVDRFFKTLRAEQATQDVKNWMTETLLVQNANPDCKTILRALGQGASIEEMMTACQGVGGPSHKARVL
Chain of Nup358 cyclophilin homology domain (P49792 3067-3223): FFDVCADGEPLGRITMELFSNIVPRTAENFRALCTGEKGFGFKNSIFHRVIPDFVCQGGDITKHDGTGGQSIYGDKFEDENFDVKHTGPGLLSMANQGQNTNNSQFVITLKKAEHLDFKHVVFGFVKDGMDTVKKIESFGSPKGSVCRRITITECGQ

Regarding “Nup358 cyclophilin homology domain (from UniProt P49792)”, the Kd was 94 µM.
